Measurements as given in the RNAGym collection of RNA variant scans (doi:10.1093/molbev/msab373).

B1: Azoarcus group I ribozyme (parent)
chain: GUGCCUUGCGCCGGGAAACCACGCAAGGGAUGGUGUCAAAUUCGGCGAAACCUAAGCGCCCGCCCGGGCGUAUGGCAACGCCGAGCCAAGCUUCGGCGCCUGCGCCGAUGAAGGUGUAGAGACUAGACGGCACCCACCUAAGGCAAACGCUAUGGUGAAGGCAUAGUCCAGGGAGUGGCGAAAGUCACACAAACCGG

Variants of: B1
Assay: reverse-splicing fitness (ratio to wild type); higher = more active; in vitro selection; Mg2+ level not given
Procedure, shortened: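 An in vitro group I ribozyme library with randomized positions was T7-transcribed and gel-purified. In triplicate, 10 pmol RNA in EPPS pH 7.5 was reacted with 50 pmoles of a 30-nt RNA substrate for 1 h at 37 °C across several added MgCl2 levels (1–48 mM), then stopped with EDTA. Products were reverse transcribed from a substrate-complementary primer, PCR-amplified and sequenced (HiSeq 4000). Fitness is a variant's read proportion after selection over that before, normalised to wild type.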

**Q.** For C82U A111C A120G A145U, which reverse-splicing fitness is on record?
**A.** 0.0159

**Q.** For C82U A111C A120G A145U C150A, which reverse-splicing fitness is on record?
**A.** 0.00775

**Q.** With C82U A111C A120G A145U C150A C169A as the variant, how does the reverse-splicing fitness read?
**A.** 0.00826

**Q.** Which reverse-splicing fitness does the source give for C82U A111C A120G A145U C150A C169A U176A here?
**A.** 0.0102

**Q.** Which reverse-splicing fitness does the source give for C82U A111C A120G A145U C150A C169A U176C here?
**A.** 0.00775

**Q.** For C82U A111C A120G A145U C150A C169A U176G, which reverse-splicing fitness is on record?
**A.** 0.00481

**Q.** With C82U A111C A120G A145U C150A C169G as the variant, how does the reverse-splicing fitness read?
**A.** 0.00681

**Q.** With C82U A111C A120G A145U C150A C169G U176A as the variant, how does the reverse-splicing fitness read?
**A.** 0.0105

**Q.** With C82U A111C A120G A145U C150A C169G U176C as the variant, how does the reverse-splicing fitness read?
**A.** 0.0126

**Q.** For C82U A111C A120G A145U C150A C169G U176G, which reverse-splicing fitness is on record?
**A.** 0.00431

**Q.** For C82U A111C A120G A145U C150A C169U, which reverse-splicing fitness is on record?
**A.** 0.006

**Q.** For C82U A111C A120G A145U C150A C169U U176A, which reverse-splicing fitness is on record?
**A.** 0.0157

**Q.** For C82U A111C A120G A145U C150A C169U U176C, which reverse-splicing fitness is on record?
**A.** 0.0106

**Q.** For C82U A111C A120G A145U C150A C169U U176G, which reverse-splicing fitness is on record?
**A.** 0.00435

**Q.** With C82U A111C A120G A145U C150A U176A as the variant, how does the reverse-splicing fitness read?
**A.** 0.0119

**Q.** For C82U A111C A120G A145U C150A U176C, which reverse-splicing fitness is on record?
**A.** 0.0144

**Q.** With C82U A111C A120G A145U C150A U176G as the variant, how does the reverse-splicing fitness read?
**A.** 0.00424

**Q.** Which reverse-splicing fitness does the source give for C82U A111C A120G A145U C150G here?
**A.** 0.00658

**Q.** Which reverse-splicing fitness does the source give for C82U A111C A120G A145U C150G C169A here?
**A.** 0.00828

**Q.** With C82U A111C A120G A145U C150G C169A U176A as the variant, how does the reverse-splicing fitness read?
**A.** 0.0108

**Q.** With C82U A111C A120G A145U C150G C169A U176C as the variant, how does the reverse-splicing fitness read?
**A.** 0.00893

**Q.** With C82U A111C A120G A145U C150G C169A U176G as the variant, how does the reverse-splicing fitness read?
**A.** 0.00541

**Q.** Which reverse-splicing fitness does the source give for C82U A111C A120G A145U C150G C169G here?
**A.** 0.00689

**Q.** With C82U A111C A120G A145U C150G C169G U176A as the variant, how does the reverse-splicing fitness read?
**A.** 0.0063

**Q.** Which reverse-splicing fitness does the source give for C82U A111C A120G A145U C150G C169G U176C here?
**A.** 0.00446

**Q.** Which reverse-splicing fitness does the source give for C82U A111C A120G A145U C150G C169G U176G here?
**A.** 0.00386

**Q.** For C82U A111C A120G A145U C150G C169U, which reverse-splicing fitness is on record?
**A.** 0.00734

**Q.** For C82U A111C A120G A145U C150G C169U U176A, which reverse-splicing fitness is on record?
**A.** 0.00881

**Q.** Which reverse-splicing fitness does the source give for C82U A111C A120G A145U C150G C169U U176C here?
**A.** 0.0106

**Q.** Which reverse-splicing fitness does the source give for C82U A111C A120G A145U C150G C169U U176G here?
**A.** 0.00419

**Q.** With C82U A111C A120G A145U C150G U176A as the variant, how does the reverse-splicing fitness read?
**A.** 0.00768

**Q.** With C82U A111C A120G A145U C150G U176C as the variant, how does the reverse-splicing fitness read?
**A.** 0.0141

**Q.** Which reverse-splicing fitness does the source give for C82U A111C A120G A145U C150G U176G here?
**A.** 0.00282

**Q.** For C82U A111C A120G A145U C150U, which reverse-splicing fitness is on record?
**A.** 0.0111

**Q.** Which reverse-splicing fitness does the source give for C82U A111C A120G A145U C150U C169A here?
**A.** 0.00896

**Q.** With C82U A111C A120G A145U C150U C169A U176A as the variant, how does the reverse-splicing fitness read?
**A.** 0.0111

**Q.** With C82U A111C A120G A145U C150U C169A U176C as the variant, how does the reverse-splicing fitness read?
**A.** 0.00758

**Q.** Which reverse-splicing fitness does the source give for C82U A111C A120G A145U C150U C169A U176G here?
**A.** 0.00451

**Q.** Which reverse-splicing fitness does the source give for C82U A111C A120G A145U C150U C169G here?
**A.** 0.00846

**Q.** For C82U A111C A120G A145U C150U C169G U176A, which reverse-splicing fitness is on record?
**A.** 0.00992

**Q.** Which reverse-splicing fitness does the source give for C82U A111C A120G A145U C150U C169G U176C here?
**A.** 0.0111

**Q.** With C82U A111C A120G A145U C150U C169G U176G as the variant, how does the reverse-splicing fitness read?
**A.** 0.00453

**Q.** With C82U A111C A120G A145U C150U C169U as the variant, how does the reverse-splicing fitness read?
**A.** 0.00803

**Q.** Which reverse-splicing fitness does the source give for C82U A111C A120G A145U C150U C169U U176A here?
**A.** 0.0158

**Q.** For C82U A111C A120G A145U C150U C169U U176C, which reverse-splicing fitness is on record?
**A.** 0.0107

**Q.** Which reverse-splicing fitness does the source give for C82U A111C A120G A145U C150U C169U U176G here?
**A.** 0.00431

**Q.** With C82U A111C A120G A145U C150U U176A as the variant, how does the reverse-splicing fitness read?
**A.** 0.013

**Q.** For C82U A111C A120G A145U C150U U176C, which reverse-splicing fitness is on record?
**A.** 0.0178

**Q.** For C82U A111C A120G A145U C150U U176G, which reverse-splicing fitness is on record?
**A.** 0.00357

**Q.** For C82U A111C A120G A145U C169A, which reverse-splicing fitness is on record?
**A.** 0.00767

**Q.** Which reverse-splicing fitness does the source give for C82U A111C A120G A145U C169A U176A here?
**A.** 0.00825

**Q.** For C82U A111C A120G A145U C169A U176C, which reverse-splicing fitness is on record?
**A.** 0.01

**Q.** Which reverse-splicing fitness does the source give for C82U A111C A120G A145U C169A U176G here?
**A.** 0.00418

**Q.** For C82U A111C A120G A145U C169G, which reverse-splicing fitness is on record?
**A.** 0.00905

**Q.** For C82U A111C A120G A145U C169G U176A, which reverse-splicing fitness is on record?
**A.** 0.00938

**Q.** For C82U A111C A120G A145U C169G U176C, which reverse-splicing fitness is on record?
**A.** 0.0109

**Q.** For C82U A111C A120G A145U C169G U176G, which reverse-splicing fitness is on record?
**A.** 0.00395

**Q.** Which reverse-splicing fitness does the source give for C82U A111C A120G A145U C169U here?
**A.** 0.00765

**Q.** For C82U A111C A120G A145U C169U U176A, which reverse-splicing fitness is on record?
**A.** 0.0158

**Q.** With C82U A111C A120G A145U C169U U176C as the variant, how does the reverse-splicing fitness read?
**A.** 0.0112

**Q.** Which reverse-splicing fitness does the source give for C82U A111C A120G A145U C169U U176G here?
**A.** 0.00369

**Q.** With C82U A111C A120G A145U U176A as the variant, how does the reverse-splicing fitness read?
**A.** 0.0148

**Q.** With C82U A111C A120G A145U U176C as the variant, how does the reverse-splicing fitness read?
**A.** 0.0192

**Q.** With C82U A111C A120G A145U U176G as the variant, how does the reverse-splicing fitness read?
**A.** 0.00452

**Q.** Which reverse-splicing fitness does the source give for C82U A111C A120G C150A here?
**A.** 0.00908

**Q.** Which reverse-splicing fitness does the source give for C82U A111C A120G C150A C169A here?
**A.** 0.0101

**Q.** For C82U A111C A120G C150A C169A U176A, which reverse-splicing fitness is on record?
**A.** 0.0163

**Q.** Which reverse-splicing fitness does the source give for C82U A111C A120G C150A C169A U176C here?
**A.** 0.0186

**Q.** Which reverse-splicing fitness does the source give for C82U A111C A120G C150A C169A U176G here?
**A.** 0.00529

**Q.** With C82U A111C A120G C150A C169G as the variant, how does the reverse-splicing fitness read?
**A.** 0.00808

**Q.** Which reverse-splicing fitness does the source give for C82U A111C A120G C150A C169G U176A here?
**A.** 0.0168

**Q.** With C82U A111C A120G C150A C169G U176C as the variant, how does the reverse-splicing fitness read?
**A.** 0.0202

**Q.** For C82U A111C A120G C150A C169G U176G, which reverse-splicing fitness is on record?
**A.** 0.00479

**Q.** For C82U A111C A120G C150A C169U, which reverse-splicing fitness is on record?
**A.** 0.00789

**Q.** With C82U A111C A120G C150A C169U U176A as the variant, how does the reverse-splicing fitness read?
**A.** 0.0192

**Q.** For C82U A111C A120G C150A C169U U176C, which reverse-splicing fitness is on record?
**A.** 0.0146

**Q.** For C82U A111C A120G C150A C169U U176G, which reverse-splicing fitness is on record?
**A.** 0.00544

**Q.** Which reverse-splicing fitness does the source give for C82U A111C A120G C150A U176A here?
**A.** 0.0152

**Q.** Which reverse-splicing fitness does the source give for C82U A111C A120G C150A U176C here?
**A.** 0.0182

**Q.** For C82U A111C A120G C150A U176G, which reverse-splicing fitness is on record?
**A.** 0.00579

**Q.** Which reverse-splicing fitness does the source give for C82U A111C A120G C150G here?
**A.** 0.00744

**Q.** Which reverse-splicing fitness does the source give for C82U A111C A120G C150G C169A here?
**A.** 0.00813

**Q.** For C82U A111C A120G C150G C169A U176A, which reverse-splicing fitness is on record?
**A.** 0.0104

**Q.** For C82U A111C A120G C150G C169A U176C, which reverse-splicing fitness is on record?
**A.** 0.00939
